From patent US20260167699A1 (Chugai, published 2026) come the findings set out here.

Changes are numbered by the printed parent chain.

For assay [1], the target named is T1, FcγRIIIa extracellular domain with C-terminal His tag (allotype not given) (human, UniProt P08637 17-208).
T1 construct: extracellular domain; also called 3a
Nature of the assay: SPR (Biacore), captured antibody, FcγRIIIa analyte; binding relative to GpH7-A5/GpH7-B3/GpL16-k0 = 100.

The target of assay [2] is T1, FcγRIIIa extracellular domain with …. Put plainly: SPR (Biacore), captured antibody, FcγRIIIa analyte, 1:1 Langmuir fit. A general note: In SPR one partner is held on a chip, and binding of the other changes the refractive index at the surface.
Method: (§1) The antibody of interest was analyzed for its interaction with FcγR using a BiaCore™ T100, BiaCore™ A100, or BiaCore™ 4000 surface plasmon resonance system (GE Healthcare Japan Corp.). The running buffer used was HBS-EP+ (GE Healthcare Japan Corp.). The assay temperature was set to 25° C. The sensor chips used were: a chip prepared by immobilizing antigenic peptides onto Series S Sensor Chip CM5 (GE Healthcare Japan Corp.) by the amine coupling method; a chip prepared by immobilizing antigenic peptides biotinylated in advance onto Series S Sensor Chip SA (certified) (GE Healthcare Japan Corp.) through their interaction; a chip prepared by immobilizing protein L (ACTIGEN, BioVision, Inc.) onto Series S Sensor Chip CM5 (GE Healthcare Japan Corp.); and a chip prepared by immobilizing protein A/G (Thermo Fisher Scientific K.K.) onto Series S Sensor Chip CM5 (GE Healthcare Japan Corp.). The antibody of interest was captured onto any of these chips and allowed to interact with FcγR diluted with a running buffer. The antibody captured on the chip was washed off through the reaction of 10 mM glycine-HCl (pH 1.5) to regenerate the chip, which was repetitively used.
Assay [3] has the same target. Nature of the assay: SPR; KD of GpH7-G1d/GpL16-k0 for FcγRIIIa divided by KD of this antibody.
Method: as §1
The target of a further assay is T2, FcγRIa (human, UniProt P12314 16-292).
T2 construct: extracellular domain; also called 1a
Put plainly: SPR (Biacore); He Ab binding / HeCon Ab (GpH7-A5/GpH7-B3/GpL16-k0) binding x100.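 Further: antibody captured on the sensor chip, soluble FcγR flowed over it in HBS-EP+ running buffer, 25 °C.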

A further assay concerns the target T3, FcγRIIa(H) (human, UniProt P12318 34-217).
T3 construct: extracellular domain; also called 2aH
T3 sequence: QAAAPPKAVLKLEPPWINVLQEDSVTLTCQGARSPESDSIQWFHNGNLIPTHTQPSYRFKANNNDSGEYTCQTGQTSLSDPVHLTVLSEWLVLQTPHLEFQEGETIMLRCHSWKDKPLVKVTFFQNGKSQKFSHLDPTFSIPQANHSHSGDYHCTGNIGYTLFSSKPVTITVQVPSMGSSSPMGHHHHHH
The assay is described as above.

The target in the next assay is T4, FcγRIIb (human, UniProt P31994 43-217).
T4 construct: extracellular domain; also called 2b
T4 sequence: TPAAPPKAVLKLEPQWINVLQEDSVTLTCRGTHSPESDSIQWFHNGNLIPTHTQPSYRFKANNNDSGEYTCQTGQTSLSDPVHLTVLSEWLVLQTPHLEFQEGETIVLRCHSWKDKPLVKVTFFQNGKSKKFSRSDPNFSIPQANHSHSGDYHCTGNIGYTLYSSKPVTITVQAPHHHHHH
The description is as above.

In a further assay the target is T5, FcγRIIa(R) (human, UniProt P12318 34-217).
T5 construct: extracellular domain; also called 2aR
T5 sequence: T3 sequence with H134R
The description is as above.

T1 sequence (P08637 other isoform, or with tags, fused parts or gaps): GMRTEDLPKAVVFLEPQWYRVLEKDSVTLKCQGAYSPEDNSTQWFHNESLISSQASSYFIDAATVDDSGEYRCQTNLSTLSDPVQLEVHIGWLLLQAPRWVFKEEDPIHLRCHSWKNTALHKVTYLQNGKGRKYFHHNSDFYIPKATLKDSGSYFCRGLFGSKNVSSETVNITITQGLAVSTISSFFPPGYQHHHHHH
T2 sequence (P12314 other isoform, or with tags, fused parts or gaps): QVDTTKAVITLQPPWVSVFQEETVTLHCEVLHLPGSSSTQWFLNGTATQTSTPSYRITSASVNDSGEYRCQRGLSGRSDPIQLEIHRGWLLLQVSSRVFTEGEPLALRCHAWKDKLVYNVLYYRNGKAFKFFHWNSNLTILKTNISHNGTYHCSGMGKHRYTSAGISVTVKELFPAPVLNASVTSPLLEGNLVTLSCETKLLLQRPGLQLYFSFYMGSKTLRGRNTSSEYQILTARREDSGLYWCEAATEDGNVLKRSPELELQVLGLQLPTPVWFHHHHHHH
Method for FcγRIIa(H): as §1
Method for FcγRIIa(R): as §1
Method for FcγRIIb: as §1
Method for FcγRIa: as §1

B1: GpH7-A5/GpH7-B3 variant S337_20W/GpL16-k0 (antibody, human IgG1, kappa)
heavy 1: not shown
heavy 2: not shown
light: DIVMTQSPLSLPVTPGEPASISCQASESLVHSNRNTYLHWYLQKPGQSPQLLIYKVSNRFSGVPDRFSGSGSGTDFTLKISRVEAEDVGVYYCSQNTHVPPTFGQGTKVEIERTVAAPSVFIFPPSDEQLKSGTASVVCLLNNFYPREAKVQWKVDNALQSGNSQESVTEQDSKDSTYSLSSTLTLSKADYEKHKVYACEVTHQGLSSPVTKSFNRGEC
notes: heterodimerized anti-glypican 3 IgG1; mutation in one H chain only; also called He Ab
For B1, the “He/Con 3a” value in assay [1] is 93.8%.

B2: GpH7-G1d/GpL16-k0 (antibody, human IgG1, kappa)
heavy: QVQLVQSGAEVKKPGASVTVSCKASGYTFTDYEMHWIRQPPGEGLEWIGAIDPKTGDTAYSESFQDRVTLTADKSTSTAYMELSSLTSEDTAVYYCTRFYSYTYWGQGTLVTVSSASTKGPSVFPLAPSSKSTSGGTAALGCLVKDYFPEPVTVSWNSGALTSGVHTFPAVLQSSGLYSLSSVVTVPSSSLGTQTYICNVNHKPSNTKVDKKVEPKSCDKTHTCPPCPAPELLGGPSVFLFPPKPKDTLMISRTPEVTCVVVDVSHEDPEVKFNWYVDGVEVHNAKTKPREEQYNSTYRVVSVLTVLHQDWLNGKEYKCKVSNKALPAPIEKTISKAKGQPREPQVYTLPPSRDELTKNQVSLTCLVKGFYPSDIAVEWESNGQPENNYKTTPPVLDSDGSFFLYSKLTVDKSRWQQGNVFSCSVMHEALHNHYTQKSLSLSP
light: B1 light
notes: anti-glypican 3 IgG1, C-terminal Gly and Lys of the H chain deleted; also called naturally occurring IgG1
In the case of B2, in assay [2], the affinity, expressed as Kd, was 1200 nM. For the same molecule, the “KD ratio1” value in assay [3] was 1 fold.

B3: GpH7-A5/GpH7-B3 variant S337_11K/GpL16-k0 (antibody, human IgG1, kappa)
heavy 1: not shown
heavy 2: not shown
light: B1 light
notes: heterodimerized anti-glypican 3 IgG1, only the GpH7-B3 chain mutated; also called He Ab
As for B3, the “He/Con 1a” value with FcγRIa stood at 101%. In the assay with FcγRIIa(H), the “He/Con 2aH” value is 102%. Also, the “He/Con 2b” value in the assay with FcγRIIb is 103%. The “He/Con 2aR” value with FcγRIIa(R) was 105%.

B4: GpH7-A5/GpH7-B3 variant S337_07I/GpL16-k0 (antibody, human IgG1, kappa)
heavy 1: not shown
heavy 2: not shown
light: B1 light
notes: as for B3
Turning to B4, the “He/Con 1a” value with FcγRIa came out at 102%. Further, in the assay with FcγRIIa(H), the “He/Con 2aH” value was determined as 107%. Moreover, in the assay with FcγRIIb, the “He/Con 2b” value amounted to 113%. In addition, the “He/Con 2aR” value with FcγRIIa(R) came out at 111%.

B5: GpH7-A5/GpH7-B3 variant S337_15Y/GpL16-k0 (antibody, human IgG1, kappa)
heavy 1: not shown
heavy 2: not shown
light: B1 light
notes: as for B3
Consider B5, for which, in the assay with FcγRIa, the “He/Con 1a” value was found to be 101%. Moreover, the “He/Con 2aH” value with FcγRIIa(H) worked out at 106%. Besides, the “He/Con 2b” value in the assay with FcγRIIb is 109%. In addition, the “He/Con 2aR” value with FcγRIIa(R) stood at 107%.

B6: GpH7-A5/GpH7-B3 variant S337_16H/GpL16-k0 (antibody, human IgG1, kappa)
heavy 1: not shown
heavy 2: not shown
light: B1 light
notes: as for B3
As to B6, in the assay with FcγRIa, the “He/Con 1a” value worked out at 101%. Further, the “He/Con 2aH” value with FcγRIIa(H) amounted to 108%. For the same molecule, in the assay with FcγRIIb, the “He/Con 2b” value amounted to 114%. The “He/Con 2aR” value with FcγRIIa(R) was 111%.

B7: GpH7-A5/GpH7-B3 variant S337_14T/GpL16-k0 (antibody, human IgG1, kappa)
heavy 1: not shown
heavy 2: not shown
light: B1 light
notes: as for B3
With B7, the “He/Con 1a” value with FcγRIa worked out at 102%. Also, the “He/Con 2aH” value with FcγRIIa(H) stood at 110%. For the same molecule, the “He/Con 2b” value with FcγRIIb worked out at 114%. Moreover, in the assay with FcγRIIa(R), the “He/Con 2aR” value was found to be 112%.

B8: GpH7-A5/GpH7-B3 variant S337_20W/GpL16-k0 (antibody, human IgG1, kappa)
heavy 1: not shown
heavy 2: not shown
light: B1 light
notes: as for B3
Take B8: the “He/Con 1a” value with FcγRIa was 102%. Besides, in the assay with FcγRIIa(H), the “He/Con 2aH” value was determined as 108%. The “He/Con 2b” value in the assay with FcγRIIb stood at 119%. For the same molecule, the “He/Con 2aR” value with FcγRIIa(R) was found to be 112%.

B9: GpH7-A5/GpH7-B3 variant S337_08L/GpL16-k0 (antibody, human IgG1, kappa)
heavy 1: not shown
heavy 2: not shown
light: B1 light
notes: as for B3
Turning to B9, the “He/Con 1a” value with FcγRIa amounted to 102%. For the same molecule, in the assay with FcγRIIa(H), the “He/Con 2aH” value was determined as 106%. Also, the “He/Con 2b” value with FcγRIIb is 109%. The “He/Con 2aR” value in the assay with FcγRIIa(R) was found to be 109%.

B10: GpH7-A5/GpH7-B3 variant S337_19Q/GpL16-k0 (antibody, human IgG1, kappa)
heavy 1: not shown
heavy 2: not shown
light: B1 light
notes: as for B3
Regarding B10, the “He/Con 1a” value with FcγRIa is 101%. The “He/Con 2aH” value with FcγRIIa(H) is 104%. Further, the “He/Con 2b” value in the assay with FcγRIIb was 109%. In the assay with FcγRIIa(R), the “He/Con 2aR” value is 108%.

Usually Kd stands for the concentration at which binding is half-saturated. A high value points to lower affinity.
